Results published in the supplement of paper PMC10567573.

B1: C19orf51 (parent)
chain: FAPQTGARPSETFARFCKSQESAL

Variants of: B1
Assay: protein stability index of a GFP-peptide fusion (GPS, HEK-293T) (PSI 1-6); higher = more stable
Conditions: c terminus: a fixed tail appended
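Also: lentivirally expressed fusions sorted by FACS into six bins by GFP to DsRed ratio, PSI derived from sequencing read proportions per bin multiplied by bin number.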

Variant | protein stability index
Q20Y | 2.31
Q20C | 3
Q20H | 1.89
Q20R | 4.59
Q20N | 1.76
Q20P | 2.65
L24P | 1.23
L24D | 1.88
L24N | 2.58
L24M | 1.56
L24Y | 3.96
L24H | 1.83
L24T | 2.27
F1M | 3.59
F1E | 4.14
F1Y | 4.05
F1Q | 3.77
F1W | 2.58
F1G | 4.63
A14V | 2.17
A14F | 1.33
A14T | 2.09
A14L | 2.12
A14R | 1.82

Variant | protein stability index
A14G | 1.74
A14E | 1.77
T12Y | 2.48
T12E | 1.4
T12P | 1.82
T12H | 1.87
T12Q | 1.35
T12N | 2.66
T12V | 2.77
T12G | 1.46
T5D | 2.37
T5Y | 2.78
T5Q | 2.47
T5A | 2.07
T5N | 2.01
T5P | 1.81
T5G | 3.11
F16K | 2.31
F16R | 1.4
F16I | 1.89
F16Q | 1.54
F16C | 2.62
F16S | 2.79
F16G | 2.38

Variant | protein stability index
R8D | 2.13
R8P | 2.83
R8E | 2.65
R8K | 2.84
R8T | 1.89
R8G | 1.94
R8Y | 1.81
R8S | 2.38
R8H | 2.88
R8W | 2.52
S10E | 1.43
S10C | 2.34
S10G | 2.46
S10A | 2.32
S10I | 2.32
S10N | 1.72
S10R | 2.34
P3E | 2.64
P3Q | 2.72
P3K | 2.51
A2G | 2.95
A2D | 3.07
A2N | 1.04
A2W | 2.02

Variant | protein stability index
A2Y | 2.59
A2M | 1.45
S19A | 2.85
S19I | 2.35
S19D | 2.2
S19P | 1.77
A23W | 2.29
A23H | 3.08
A23Q | 1.82
A23T | 2.07
A23F | 2.44
A23V | 1.68
A23I | 1.89
A23P | 2.46
A23N | 3.57
A23C | 1.55
E21G | 3
E21C | 1.97
E21D | 2.04
E21F | 1.76
E21M | 2.35
E21W | 3.29
E21H | 3.63
E21K | 1.85

Variant | protein stability index
E21A | 2.86
P9I | 2.25
P9T | 3.29
P9L | 1.06
P9W | 1.65
P9Y | 3.62
S22E | 1.58
S22R | 1.51
S22H | 1.98
S22G | 3.57
S22T | 1.88
S22K | 1.33
S22V | 1.8
S22F | 2.18
S22P | 3.4
F13I | 1.7
F13H | 1.48
F13Q | 2.12
F13P | 1.07
F13L | 2.54
F13G | 2
F13T | 1.82
Q4S | 2.6
Q4P | 1.28

Variant | protein stability index
Q4C | 2.85
Q4L | 4.02
Q4F | 1.98
Q4H | 2.21
Q4T | 2.06
Q4K | 1.99
Q4N | 1.69
C17Q | 1.35
C17N | 2.79
C17L | 1.42
C17P | 1.9
C17D | 1.68
C17W | 3
E11F | 3.67
E11S | 3.19
E11N | 3.64
E11T | 1.96
E11A | 1.55
A7M | 1.77
A7K | 1.53
A7D | 1.59
A7I | 1.79
A7H | 3.46
A7C | 2.92

Variant | protein stability index
A7F | 2.41
K18D | 1.1
K18C | 2.44
K18I | 2.29
K18V | 2.45
K18Q | 1.81
K18N | 1.3
K18P | 2.61
K18G | 2.56
K18Y | 1.99
K18L | 2.2
G6F | 2.86
G6I | 2.25
G6Q | 1.36
G6V | 2.13
G6E | 1.67
R15H | 1.69
R15D | 1.27
R15K | 2.48
R15V | 3.42
R15Q | 1.16
R15C | 3.88
R15N | 3.83
